In IntAct's records for PubMed 19632184:

Biological target: mare1_human MAPRE1 (UniProt Q15691)
Sequence (Q15691 whole entry): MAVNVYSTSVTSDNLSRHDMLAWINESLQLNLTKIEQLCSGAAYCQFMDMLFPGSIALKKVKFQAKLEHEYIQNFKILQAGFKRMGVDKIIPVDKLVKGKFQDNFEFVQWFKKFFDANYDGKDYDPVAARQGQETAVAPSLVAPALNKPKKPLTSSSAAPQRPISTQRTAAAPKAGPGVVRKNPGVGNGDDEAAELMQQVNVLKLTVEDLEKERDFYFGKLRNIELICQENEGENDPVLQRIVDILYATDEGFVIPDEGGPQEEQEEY

## Dystonin (Homo sapiens), Q03001 I7552N;P7553N
  effect of a mutation on the interaction: decreasing interaction
